Experimental data published in publication PMC9122589.

How the values were obtained:
[1] = target: BrxR ('BREX Regulator') from Acinetobacter sp. NEB394, untagged (Acinetobacter sp. NEB394); experiment: SEC; elution profile of purified protein on size exclusion chromatography; conditions of this run not stated
[2] = target: BrxR ('BREX Regulator') from Acinetobacter sp. NEB394, untagged (Acinetobacter sp. NEB394); experiment: crystal structure; BrxR (125 uM) co-crystallized with 25 bp dsDNA target (150 uM), 2.3 Å, molecular replacement; 0.04 M citric acid, 20% PEG 3350, 60 mM Bis-Tris propane pH 6.4
[3] = target: BrxR (R47A) from Acinetobacter sp. NEB394 (Acinetobacter sp. NEB394); experiment: SEC; elution profile of purified protein on size exclusion chromatography; conditions of this run not stated
[4] = target: BrxR (untagged WT) (Acinetobacter sp. NEB394) (UniProt A0A7H8SL41); experiment: EMSA; details: EMSA: 20 mM Tris pH 7.9, 40 mM NaCl, 2.5% sucrose, 22 C, 30 min; 20 nM DNA (10 nM in Fig S6), 25-800 nM BrxR; 7% native gel in TBE
[5] = target: selenomethionyl (SeMet)-containing BrxR from Acinetobacter sp. NEB394 (Acinetobacter sp. NEB394); experiment: crystal structure; apo BrxR, SeMet-derivatized protein, SAD phasing, 2.3 Å; crystals from 10% PEG3000, 0.1 M HEPES pH 7.3, 2% benzamidine-HCl

Substance “BrxR ('BREX Regulator') from Acinetobacter sp. NEB394, untagged (natural protein)” has a stoichiometry N [1] of 2 and a stoichiometry N [2] of 2.

With “BrxR (R47A) from Acinetobacter sp. NEB394 (natural protein)” the stoichiometry N [3] was 2.

Work on “GCGGAGTCCATCCAAACATCGGGAGATTTTGATCAGATATGTTTAACCTGCCCTCACAATACCGTAAAAATAATTTACTGTATATTCATTGTAGGGTAGTCTTGATCACATTGTTTATTGACCGATTGTTCTATGACAGCAGACAAGCATGAAGTGCTTCTCAGAATGAGGGCGATTGAGTTACTGGCCTACTGGGAAGGGCGTTTG (double strand) [BREX upstream region -109/+98 (~200 bp)]” yielded a Kd [4] of 0.1 µM.

“selenomethionyl (SeMet)-containing BrxR from Acinetobacter sp. NEB394 (natural protein)” showed a stoichiometry N [5] of 2.
